Measurements taken from PMC4225554.

Legend:
[1] = target: RD1-MART1 single-chain TCR, yeast-displayed (human); test: flow cytometry on cells
[2] = target: RD1-MART1^HIGH single-chain TCR, yeast-displayed (human); test: flow cytometry on cells

Row | EC50 [1] | EC50 [2] | Substance
1 | > 5000 nM | 52 nM | MART1 ([…])/HLA-A2, refolded biotinylated monomer (from UniProt P61769 21-119) (peptide-MHC)
2 | 130 nM | – | MART1 ([…])/HLA-A2-Ig dimer (from UniProt P61769 21-119) (peptide-MHC)
